One molecule from patent publication US20250277196A1, “EPSPS MUTANTS AND METHOD OF ITS USES” (CROPEDIT BIOTECHNOLOGY INC., priority 2021, published 2025) can be followed below.

One assay has as its system E. coli lacking EPSPS. The assay can be described thus: Glyphosate resistance comparison among rice EPSPS mutants: growth of transformed E. coli on M9 medium with different glyphosate concentrations. It counts as cell-based, Escherichia coli. The method, then:
a) PCR system: According to the primer and template mixed PCR system corresponding to the target vector in the above table, the forward primer was 1.25 μl, the reverse primer was 1.25 μl, the template plasmid was 2 μl, the Q5 PCR master mix was 12.5 μl, and ddH2O was […].
b) PCR reaction conditions were as following: the annealing temperature was set according to the annealing temperature corresponding to the target carrier in the above table.
c) Took out 5 μl of the obtained PCR product and added it to the loading buffer for agarose gel electrophoresis. A band with a size of about 4.5 kb was considered successful.
d) Used NEB's KLD enzyme mixture to remove the template and connected the PCR product. The connection system was 5 μl KLD buffer, 1 μl KLD MIX, 1 μl PCR product, and ddH2O 3 μl. After ligating at room temperature for 5 min, transformed it into E. coli.
e) The ligation product was transformed into Dh5a competent E. coli lacking EPSPS. After resuscitation, the cells were washed twice with M9 medium, and then the washed cells were spread on M9 medium and cultured for 48 h. Sequenced the grown single colony (Tsingke Biological Technology Co., Ltd.), and selected the correct mutant to save for future use.
OsWt represents the wild type rice EPSPS(SEQ ID NO:2). […] OsGA represents the mutated rice EPSPS with mutation G172A. (SEQ ID NO:7) OsPS represents the mutated rice EPSPS with mutation P177S. (SEQ ID NO:8) OsGAPS represents the mutated rice EPSPS with mutation G172A and P177S. (SEQ ID NO:9) OsGAVA represents the mutated rice EPSPS with mutation G172A and V403A(SEQ ID NO:4). OsPSVA represents the mutated rice EPSPS with mutation P177S and V403A(SEQ ID NO:5). OsGPV represents the mutated rice EPSPS with mutation G172A, P177S and V403A(SEQ ID NO:6). OsTIPS represents the mutated rice EPSPS with mutation T173I and P177S. (SEQ ID NO: 35). OsTIPT represents the mutated rice EPSPS with mutation T173I and P177T. (SEQ ID NO:36). OsTIPSVA represents the mutated rice EPSPS with mutation T173I, P177S and V403A. (SEQ ID NO:37). OsTIPTVA represents the mutated rice EPSPS with mutation T173I, P177T and V403A. (SEQ ID NO:38). CP4 represents the wild type EPSPS from Agrobacterium tumefaciens. (SEQ ID NO:39)
Each product obtained from the above steps were transformed into E. coli lacking EPSPS. By detecting the growth of the transformed Escherichia coli on M9 medium containing different glyphosate concentrations (0 mM, 0.5 mM, 2 mM, 4 mM, 5 mM, 25 mM, 75 mM, 100 mM), the 1 mM glyphosate here was equivalent to […] glyphosate acid, the glyphosate resistance of rice EPSPS mutants was verified.

In assay [1] the test system is T1 generation transgenic rice. The assay can be described thus: Glyphosate resistance of T1 generation transgenic rice seedlings (FIG. 10). It counts as in vivo. As to conditions: 100 ppm glyphosate aqueous solution (Roundup), cultivated 10 days; wild-type rice control significantly inhibited and died. From the text: The rice seed used in this example is RICE KENG XIANG DA008-169, which is publicly available.
Nucleic acid sequence encoding OsGPV mutants (comprising G172A, P177S and V403A) (SEQ ID NO:6) were inserted into the plant expression vector according to the conventional methods to obtain the pk510 vector expressing the OsGPV gene. (see FIG. 9)
1) The transgenic vector pk510 was introduced into Agrobacterium EHA105 to obtain recombinant Agrobacterium.
2) One to five days before the transformation experiment, recombinant Agrobacterium was inoculated on YEB solid medium containing 50 mg/L kanamycin and 15 mg/L rifampicin. The medium was sealed in the dish with 3M tape; kept at temperature at 28° C. in an inverted dish orientation and cultured it in dark for one to five days.
3) The bacteria was scraped at the “Z”-shaped tail with the inoculation ring, and gently suspended in […] NB liquid medium containing 2 mg/L 2,4-dichlorophenoxyacetic acid to make the concentration of the bacteria liquid reach approximately O.D. 600=0.1, and then reserve the make Agrobacterium infection solution.
4) After removing the rice seed coat, the rice seed was placed in a triangular flask, washed 3 times with sterile water. 75% alcohol was added to immerse the seeds, shaken gently for 1 min, and the alcohol discarded. […]

B1: OsGPV: mutated rice EPSPS with mutation G172A, P177S and V403A (SEQ ID NO:6) (protein)
chain: MAAKAEEIVLQPIREISGAVQLPGSKSLSNRILLLSALSEGTTVVDNLLNSEDVHYMLEALKALGLSVEADKVAKRAVVVGCGGKFPVEKDAKEEVQLFLGNAATAMRSLTAAVTAAGGNATYVLDGVPRMRERPIGDLVVGLKQLGADVDCFLGTECPPVRVKGIGGLPGGKVKLSGSISSQYLSALLMAAPLALGDVEIEIIDKLISIPYVEMTLRLMERFGVKAEHSDSWDRFYIKGGQKYKSPGNAYVEGDASSASYFLAGAAITGGTVTVQGCGTTSLQGDVKFAEVLEMMGAKVTWTDTSVTVTGPPREPYGKKHLKAVDVNMNKMPDAAMTLAVVALFADGPTAIRDVASWRVKETERMVAIRTELTKLGASVEEGPDYCIITPPEKLNITAIDTYDDHRMAMAFSLAACADVPVTIRDPGCTRKTFPNYFDVLSTFVRN
modifications: This sequence is synthesized in lab.
In the case of B1, the “glyphosate resistance compared with CP4 EPSPS” value with E. coli lacking EPSPS (100 mM glyphosate medium, FIG. 2) is on record as “comparable”. In addition, in the assay with E. coli lacking EPSPS (M9 medium, tested 0, 0.5, 2, 4, 5, 25, 75, 100 mM glyphosate, FIG. 2, FIG. 3), the “glyphosate concentration of the medium on which the strain can grow” value was 100 mM. For the same molecule, in assay [1], the “growth of transgenic rice seedlings in glyphosate solution” value is reported as “not significantly affected”.
